From the supplement of paper PMC11246515
± gives the standard deviation of the averaged measurements.

Assay: total protein half-life in vivo (active degradation + dilution); higher = more stable protein
[1] = E. coli NCM3722 delta-clpP delta-lon delta-hslV, growth: N-lim chemostat, doubling time 6 h
[2] = E. coli NCM3722 delta-clpP, growth: N-lim chemostat, doubling time 6 h
[3] = E. coli NCM3722 delta-hslV, growth: N-lim chemostat, doubling time 6 h
[4] = E. coli NCM3722 delta-lon, growth: N-lim chemostat, doubling time 6 h
[5] = E. coli NCM3722 delta-smpB, growth: N-lim chemostat, doubling time 6 h
[6] = wild type E. coli NCM3722, growth: C-lim chemostat, doubling time 3 h
[7] = wild type E. coli NCM3722, growth: C-lim chemostat, doubling time 6 h
[8] = wild type E. coli NCM3722, growth: C-lim chemostat, doubling time 12 h
[9] = wild type E. coli NCM3722, growth: N-lim chemostat, doubling time 6 h
[10] = wild type E. coli NCM3722, growth: N-lim chemostat, doubling time 12 h
[11] = wild type E. coli NCM3722, growth: P-lim chemostat, doubling time 6 h
[12] = wild type E. coli NCM3722, growth: P-lim chemostat, doubling time 12 h

Row | Sequence | total protein half-life in vivo [1] [h] | total protein half-life in vivo [2] [h] | total protein half-life in vivo [3] [h] | total protein half-life in vivo [4] [h] | total protein half-life in vivo [5] [h] | total protein half-life in vivo [6] [h] | total protein half-life in vivo [7] [h] | total protein half-life in vivo [8] [h] | total protein half-life in vivo [9] [h] | total protein half-life in vivo [10] [h] | total protein half-life in vivo [11] [h] | total protein half-life in vivo [12] [h]
1 | MAGNDREPIGRKGKPTRPVKQKVSRRRYEDDDDYDDYDDYEDEEPMPRKGKGKGKGRKPRGKRGWLWLLLKLAIVFAVLIAIYGVYLDQKIRSRIDGKVWQLPAAVYGRMVNLEPDMTISKNEMVKLLEATQYRQVSKMTRPGEFTVQANSIEMIRRPFDFPDSKEGQVRARLTFDGDHLATIVNMENNRQFGFFRLDPRLITMISSPNGEQRLFVPRSGFPDLLVDTLLATEDRHFYEHDGISLYSIGRAVLANLTAGRTVQGASTLTQQLVKNLFLSSERSYWRKANEAYMALIMDARYSKDRILELYMNEVYLGQSGDNEIRGFPLASLYYFGRPVEELSLDQQALLVGMVKGASIYNPWRNPKLALERRNLVLRLLQQQQIIDQELYDMLSARPLGVQPRGGVISPQPAFMQLVRQELQAKLGDKVKDLSGVKIFTTFDSVAQDAAEKAAVEGIPALKKQRKLSDLETAIVVVDRFSGEVRAMVGGSEPQFAGYNRAMQARRSIGSLAKPATYLTALSQPKIYRLNTWIADAPIALRQPNGQVWSPQNDDRRYSESGRVMLVDALTRSMNVPTVNLGMALGLPAVTETWIKLGVPKDQLHPVPAMLLGALNLTPIEVAQAFQTIASGGNRAPLSALRSVIAEDGKVLYQSFPQAERAVPAQAAYLTLWTMQQVVQRGTGRQLGAKYPNLHLAGKTGTTNNNVDTWFAGIDGSTVTITWVGRDNNQPTKLYGASGAMSIYQRYLANQTPTPLNLVPPEDIADMGVDYDGNFVCSGGMRILPVWTSDPQSLCQQSEMQQQPSGNPFDQSSQPQQQPQQQPAQQEQKDSDGVAGWIKDMFGSN | 6.443 ± 0.011 | 6.43 ± 0.51 | 6.2211 ± 0.00055 | 6.266 ± 0.031 | 6.19 ± 0.56 | 3.17 ± 0.036 | 6.09 ± 0.71 | 12.4 ± 1.3 | 6.01 ± 0.19 | 12.5 ± 0.15 | 6.15 ± 0.58 | 12.4 ± 0.17
2 | MSRRNTDAITIHSILDWIEDNLESPLSLEKVSERSGYSKWHLQRMFKKETGHSLGQYIRSRKMTEIAQKLKESNEPILYLAERYGFESQQTLTRTFKNYFDVPPHKYRMTNMQGESRFLHPLNHYNS [P0ACH5] | 3.42 ± 0.064 | – | – | > 8 | – | – | – | – | – | – | – | –
3 | MTDNNTALKKAGLKVTLPRLKILEVLQEPDNHHVSAEDLYKRLIDMGEEIGLATVYRVLNQFDDAGIVTRHNFEGGKSVFELTQQHHHDHLICLDCGKVIEFSDDSIEARQREIAAKHGIRLTNHSLYLYGHCAEGDCREDEHAHEGK [P0A9A9] | 6.49 ± 0.92 | 5.31 ± 0.6 | 4.58 ± 1.7 | 6.38 ± 0.37 | 3.6 ± 0.55 | 2.35 ± 0.2 | 4.31 ± 0.14 | 8.38 ± 1.9 | 4.58 ± 0.81 | 11.3 ± 3.6 | 5.27 ± 0.16 | 11.5 ± 1.6
4 | MIVKKLTLPKDFLWGGAVAAHQVEGGWNKGGKGPSICDVLTGGAHGVPREITKEVLPGKYYPNHEAVDFYGHYKEDIKLFAEMGFKCFRTSIAWTRIFPKGDEAQPNEEGLKFYDDMFDELLKYNIEPVITLSHFEMPLHLVQQYGSWTNRKVVDFFVRFAEVVFERYKHKVKYWMTFNEINNQRNWRAPLFGYCCSGVVYTEHENPEETMYQVLHHQFVASALAVKAARRINPEMKVGCMLAMVPLYPYSCNPDDVMFAQESMRERYVFTDVQLRGYYPSYVLNEWERRGFNIKMEDGDLDVLREGTCDYLGFSYYMTNAVKAEGGTGDAISGFEGSVPNPYVKASDWGWQIDPVGLRYALCELYERYQRPLFIVENGFGAYDKVEEDGSINDDYRIDYLRAHIEEMKKAVTYDGVDLMGYTPWGCIDCVSFTTGQYSKRYGFIYVNKHDDGTGDMSRSRKKSFNWYKEVIASNGEKL | 5.79 ± 0.69 | 5.12 ± 0.34 | 5.44 ± 0.26 | 5.46 ± 0.0062 | 4.985 ± 0.0067 | 3.08 ± 0.12 | 5.89 ± 0.32 | 10.03 ± 0.031 | 4.85 ± 0.075 | 9.46 ± 0.4 | 6.17 ± 0.47 | 11.1 ± 0.41
5 | MNQFYVHVRLFEDTAEQTKKFEELMLNFLYQKTVKESDDSCCRLIPEGYILKSTMNCQQILDQTFSIANSAGVDANIFVCKFEQSACLLPSASLVGNDFVHYDLTPKPIKLDS | 5.47 ± 0.25 | – | – | – | – | – | – | – | – | – | – | –
6 | MQQSTPYLSFRGIGKTFPGVKALTDISFDCYAGQVHALMGENGAGKSTLLKILSGNYAPTTGSVVINGQEMSFSDTTAALNAGVAIIYQELHLVPEMTVAENIYLGQLPHKGGIVNRSLLNYEAGLQLKHLGMDIDPDTPLKYLSIGQWQMVEIAKALARNAKIIAFDEPTSSLSAREIDNLFRVIRELRKEGRVILYVSHRMEEIFALSDAITVFKDGRYVKTFTDMQQVDHDALVQAMVGRDIGDIYGWQPRSYGEERLRLDAVKAPGVRTPISLAVRSGEIVGLFGLVGAGRSELMKGMFGGTQITAGQVYIDQQPIDIRKPSHAIAAGMMLCPEDRKAEGIIPVHSVRDNINISARRKHVLGGCVINNGWEENNADHHIRSLNIKTPGAEQLIMNLSGGNQQKAILGRWLSEEMKVILLDEPTRGIDVGAKHEIYNVIYALAAQGVAVLFASSDLPEVLGVADRIVVMREGEIAGELLHEQADERQALSLAMPKVSQAVA [P0AAF3] | – | – | 5.15 | – | 2.45 ± 0.57 | 2.228 ± 0.021 | 3.922 ± 0.021 | 5.96 ± 0.79 | – | 6.06 | – | 10.5
7 | MSLAKDNIWKLLAPLVVMGVMFLIPVPDGMPPQAWHYFAVFVAMIVGMILEPIPATAISFIAVTICVIGSNYLLFDAKELADPAFNAQKQALKWGLAGFSSTTVWLVFGAFIFALGYEVSGLGRRIALFLVKFMGKRTLTLGYAIVIIDILLAPFTPSNTARTGGTVFPVIKNLPPLFKSFPNDPSARRIGGYLMWMMVISTSLSSSMFVTGAAPNVLGLEFVSKIAGIQISWLQWFLCFLPVGVILLIIAPWLSYVLYKPEITHSEEVATWAGDELKTMGALTRREWTLIGLVLLSLGLWVFGSEVINATAVGLLAVSLMLALHVVPWKDITRYNSAWNTLVNLATLVVMANGLTRSGFIDWFAGTMSTHLEGFSPNATVIVLVLVFYFAHYLFASLSAHTATMLPVILAVGKGIPGVPMEQLCILLVLSIGIMGCLTPYATGPGVIIYGCGYVKSKDYWRLGAIFGVIYISMLLLVGWPILAMWN [P0AE74] | – | 7.68 | – | – | – | – | – | – | – | – | – | –
8 | MRHCGWLLGLLSLFSLATHASDWQEIKNEAKGQTVWFNAWGGDTAINRYLDWVSGEMKTHYAINLKIVRLADAADAVKRIQTEAAAGRKTGGSVDLLWVNGENFRTLKEANLLQTGWAETLPNWRYVDTQLPVREDFSVPTQGAESPWGGAQLTFIARRDVTPQPPQTPQALLEFAKANPGTVTYPRPPDFTGTAFLEQLLIMLTPDPAALKEAPDDATFARVTAPLWQYLDVLHPYLWREGKDFPPSPARMDALLKAGTLRLSLTFNPAHAQQKIASGDLPASSYSFGFREGMIGNVHFVTIPANANASAAAKVVANFLLSPDAQLRKADPAVWGDPSVLDPQKLPDGQRESLQSRMPQDLPPVLAEPHAGWVNALEQEWLHRYGTH | 5.63 ± 0.51 | 6.09 ± 0.099 | 6.22 ± 0.27 | 6.17 ± 0.65 | 5.628 ± 0.055 | 3.45 ± 0.33 | 6.17 ± 0.22 | 13.7 ± 0.41 | 6.027 ± 0.021 | 13.4 ± 0.98 | 6.54 ± 0.45 | 12.3 ± 1.5
9 | MAIRLYKLAVALGVFIVSAPAFSHGHHSHGKPLTEVEQKAANGVFDDANVQNRTLSDWDGVWQSVYPLLQSGKLDPVFQKKADADKTKTFAEIKDYYHKGYATDIEMIGIEDGIVEFHRNNETTSCKYDYDGYKILTYKSGKKGVRYLFECKDPESKAPKYIQFSDHIIAPRKSSHFHIFMGNDSQQSLLNEMENWPTYYPYQLSSEEVVEEMMSH | 5.56 | – | 7.32 ± 0.35 | – | – | 3.24 ± 0.14 | 6.23 ± 0.17 | 12.8 ± 0.55 | – | > 16 | 5.89 ± 0.14 | –
